± gives the standard deviation of the averaged measurements.
system: Saccharomyces cerevisiae; assay: protein stability index of tFT-peptide fusion (C-terminal peptide) (PSI (0-1 scale)); higher = more stable (slower turnover); conditions: genetic background: das1 deletion; temperature: 30 C
Experimental: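 MPS profiling in S. cerevisiae of the yeast C-terminome library: the last 12 aa of each annotated ORF are fused to the C-terminus of a sfGFP-mCherry timer, after a GGGS linker. Cells are FACS-sorted into 8 mCherry/sfGFP bins and deep-sequenced. PSI runs from 0 (unstable) to 1 (stable); wild type and das1Δ backgrounds, two technical replicates each.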

Row | Sequence | protein stability index
1 | FCTVAKIIQCFL [YDR396W C-terminal 12 aa] | 0.5838 ± 0.0053
2 | FDAVTKTLEKYA [YKR070W C-terminal 12 aa] | 0.68 ± 0.019
3 | FDLIKLALQRKK [AGX1 C-terminal 12 aa] | 0.7118 ± 0.0048
4 | FDREDAMKKENK [DPH2 C-terminal 12 aa] | 0.692 ± 0.024
5 | FDYDFLFGNDFA [OAF1 C-terminal 12 aa] | 0.791 ± 0.006
6 | FFFSNSFLPASR [YJL127W-A C-terminal 12 aa] | 0.7317 ± 0.0022
7 | FFTIEKYSVRRS [YOL013W-A C-terminal 12 aa] | 0.7332 ± 0.0047
8 | FGYESTDQILKL [NNR1 C-terminal 12 aa] | 0.738 ± 0.0047
9 | FHHTSKTFAFAD [YGR219W C-terminal 12 aa] | 0.696 ± 0.022
10 | FHLRHHKGAEEH [ATP17 C-terminal 12 aa] | 0.7076 ± 0.0039
11 | FIAHLILTDALK [ULP1 C-terminal 12 aa] | 0.64 ± 0.025
12 | FIRFAINIHTFI [YJL009W C-terminal 12 aa] | 0.46 ± 0.0057
13 | FKQKYDADVLDK [RPL11A C-terminal 12 aa] | 0.6902 ± 0.0043
14 | FLPINVNDVPST [RGD3 C-terminal 12 aa] | 0.716 ± 0.0089
15 | FLWEMFELKLYL [YMR119W-A C-terminal 12 aa] | 0.7071 ± 0.0016
16 | FMKELEMSEESD [RAD4 C-terminal 12 aa] | 0.693 ± 0.015
17 | FQSEYNISDILS [CEP3 C-terminal 12 aa] | 0.703 ± 0.0092
18 | FRHNRSNKKSGC [GEX2 C-terminal 12 aa] | 0.707 ± 0.032
19 | FSAGNYKLPPGI [KTR3 C-terminal 12 aa] | 0.68 ± 0.011
20 | FSFSIFFFFCLA [YFR035C C-terminal 12 aa] | 0.291 ± 0.017
21 | FSFTEEPRIVMI [DCD1 C-terminal 12 aa] | 0.689 ± 0.02

Row | Sequence | protein stability index
22 | FSNAGVEMQIRK [GNA1 C-terminal 12 aa] | 0.702 ± 0.0064
23 | FSSEYLLVHVQQ [YLR458W C-terminal 12 aa] | 0.662 ± 0.011
24 | FSSSVMIIMKAS [NFT1 C-terminal 12 aa] | 0.5186 ± 0.0012
25 | FTFGTPIFLQLL [YFR010W-A C-terminal 12 aa] | 0.653 ± 0.025
26 | FTFIIIQLFPAL [USE1 C-terminal 12 aa] | 0.351 ± 0.016
27 | FTLVGYDKEFSD [ADH6 C-terminal 12 aa] | 0.6911 ± 0.0014
28 | FVDDNTPLEHVC [YDL086W C-terminal 12 aa] | 0.706 ± 0.011
29 | FVDYKTHPVGAN [RGI1 C-terminal 12 aa] | 0.709 ± 0.01
30 | FVFALSYPYEEI [ALG2 C-terminal 12 aa] | 0.713 ± 0.011
31 | FVKPGEICLREQ [RDH54 C-terminal 12 aa] | 0.712 ± 0.039
32 | FVNNKGNFKDLK [ARG3 C-terminal 12 aa] | 0.722 ± 0.025
33 | FWFLFPLRLPGG [IRC16 C-terminal 12 aa] | 0.5766 ± 0.0015
34 | FWNCVDGHLKYD [INM1 C-terminal 12 aa] | 0.724 ± 0.0075
35 | FWTINDDYGFLT [YLR278C C-terminal 12 aa] | 0.757 ± 0.029
36 | GAAIAGAAAMLL [TIR3 C-terminal 12 aa] | 0.718 ± 0.014
37 | GAGVMAAAAMLL [TIR2 C-terminal 12 aa] | 0.714 ± 0.029
38 | GALERKLHIDEN [MAM1 C-terminal 12 aa] | 0.6947 ± 0.0045
39 | GAVYFFSKARKA [COX26 C-terminal 12 aa] | 0.7207 ± 0.0023
40 | GCVRSMLRDLQR [GCR2 C-terminal 12 aa] | 0.6733 ± 0.0057
41 | GEDPYADLFRDF [TPK1 C-terminal 12 aa] | 0.731 ± 0.0078
42 | GEGGHFVIKKIS [DIT1 C-terminal 12 aa] | 0.6854 ± 0.0056

Row | Sequence | protein stability index
43 | GETIRVNYGSTQ [YJR154W C-terminal 12 aa] | 0.685 ± 0.0089
44 | GEVVKTIIFGPE [SOR1 C-terminal 12 aa] | 0.7 ± 0.017
45 | GEYYNLIVPSLD [YGK3 C-terminal 12 aa] | 0.7209 ± 0.0012
46 | GFQTGSAKATSA [RPL37B C-terminal 12 aa] | 0.703 ± 0.02
47 | GGLDCKSNVFMR [PAC1 C-terminal 12 aa] | 0.697 ± 0.013
48 | GGNKQAPGLELG [YMR242W-A C-terminal 12 aa] | 0.6918 ± 0.0046
49 | GIILRSCWNPRQ [YOL159C-A C-terminal 12 aa] | 0.721 ± 0.019
50 | GILCSLMEFFTN [TDA6 C-terminal 12 aa] | 0.727 ± 0.053
51 | GKKLVQEAFRIV [YPL039W C-terminal 12 aa] | 0.715 ± 0.019
52 | GKRIIGMLHLDS [PUF4 C-terminal 12 aa] | 0.685 ± 0.037
53 | GKSSKKKNRSRK [SSH4 C-terminal 12 aa] | 0.726 ± 0.052
54 | GLEKKKKKQNNQ [NPR1 C-terminal 12 aa] | 0.69 ± 0.015
55 | GLLFDKKKKARK [NOP19 C-terminal 12 aa] | 0.687 ± 0.012
56 | GNNNCPLHMDYI [STE5 C-terminal 12 aa] | 0.7274 ± 0.0071
57 | GQTSRTVTPAPN [ITC1 C-terminal 12 aa] | 0.726 ± 0.026
58 | GRGAISYSDITI [PEP5 C-terminal 12 aa] | 0.707 ± 0.018
59 | GRLFEGMPGTET [ITT1 C-terminal 12 aa] | 0.709 ± 0.0093
60 | GSEIDFTDYLGP [PUT3 C-terminal 12 aa] | 0.729 ± 0.012
61 | GSLLLGLISFLL [EGT2 C-terminal 12 aa] | 0.669 ± 0.0091
62 | GSSGRLTASPVY [PEX2 C-terminal 12 aa] | 0.696 ± 0.023
63 | GTKEYCKMIDFL [YLR108C C-terminal 12 aa] | 0.704 ± 0.014

Row | Sequence | protein stability index
64 | GTKEYYKGYEYL [MRX16 C-terminal 12 aa] | 0.6984 ± 0.0016
65 | GTLESFFKRKAK [POL32 C-terminal 12 aa] | 0.732 ± 0.015
66 | GVETLLDIFMKF [ARG82 C-terminal 12 aa] | 0.74146 ± 0.00055
67 | GVFEADGLEAVH [YLR235C C-terminal 12 aa] | 0.717 ± 0.029
68 | GVRRSVRLNNRV [MCM4 C-terminal 12 aa] | 0.699 ± 0.019
69 | GVSFHVQVTMPQ [TRS33 C-terminal 12 aa] | 0.711 ± 0.023
70 | GWEVLSVYSFTR [MTQ2 C-terminal 12 aa] | 0.727 ± 0.042
71 | GWFEEVRDHKRH [SKY1 C-terminal 12 aa] | 0.731 ± 0.017
72 | GWPLKDGNKKRK [OTO1 C-terminal 12 aa] | 0.682 ± 0.025
73 | GYCFEFTLYNRK [DFR1 C-terminal 12 aa] | 0.7243 ± 0.0021
74 | GYKPIILYHVIH [YDL025W-A C-terminal 12 aa] | 0.691 ± 0.024
75 | GYYQRRNKRKRA [UTP20 C-terminal 12 aa] | 0.749 ± 0.012
76 | HCGARLTVIPKK [YER137C C-terminal 12 aa] | 0.693 ± 0.016
77 | HELIKKRWDDRK [NCE101 C-terminal 12 aa] | 0.712 ± 0.016
78 | HETFDFRNLKLR [YER121W C-terminal 12 aa] | 0.701 ± 0.043
79 | HETMVNGSKRRL [DIF1 C-terminal 12 aa] | 0.686 ± 0.014
80 | HEYVTINGDYRS [ARG7 C-terminal 12 aa] | 0.679 ± 0.017
81 | HFASSLVSFLSK [ICT1 C-terminal 12 aa] | 0.727 ± 0.028
82 | HIDIPDFAKWDI [SUL2 C-terminal 12 aa] | 0.727 ± 0.013

— the supplement of paper PMC10724198
